Test results taken from publication PMC4631608 (Journal of structural and functional genomics, 2015).

Target: the molecule itself
Assay: SEC

B1: M. tuberculosis Rv1496 (natural protein)
chain: MMAASHDDDTVDGLATAVRGGDRAALPRAITLVESTRPDHREQAQQLLLRLLPDSGNAHRVGITGVPGVGKSTAIEALGMHLIERGHRVAVLAVDPSSTRTGGSILGDKTRMARLAVHPNAYIRPSPTSGTLGGVTRATRETVVLLEAAGFDVILIETVGVGQSEVAVANMVDTFVLLTLARTGDQLQGIKKGVLELADIVVVNKADGEHHKEARLAARELSAAIRLIYPREALWRPPVLTMSAVEGRGLAELWDTVERHRQVLTGAGEFDARRRDQQVDWTWQLVRDAVLDRVWSNPTVRKVRSELERRVRAGELTPALAAQQILEIANLTDR
- stoichiometry N: 2
